# Starred links: 1 amine or outer side, 2 acyl side, 3 side chain; linkers in the order of their positions; H or OH if unused. Positions of bridges follow the written chain, without caps; N, C: chain ends. Non-standard residues stand in square brackets, D forms with d. Primed or numbered codes have the meaning given here. B5(16) = 2-amino-2-(pent-4-en-1-yl)hept-6-enoic acid = 2,2-bis(4-pentenyl)glycine (stitching residue), C=CCCCC(CCCC=C)(N[*:1])C(=O)[*:2]; B5(21) = 2-amino-2-(pent-4-en-1-yl)hept-6-enoic acid, bis(4-pentenyl)glycine (stitching residue), C=CCCCC(CCCC=C)(N[*:1])C(=O)[*:2]; B5(9) = 2-amino-2-(pent-4-en-1-yl)hept-6-enoic acid (2,2-bis(4-pentenyl)glycine), C=CCCCC(CCCC=C)(N[*:1])C(=O)[*:2]; (NHMe)AsnR = N4-methyl-L-asparagine, CNC(=O)C[C@H](N[*:1])C(=O)[*:2]; TOMe = O-methyl-L-threonine, CO[C@H](C)[C@H](N[*:1])C(=O)[*:2]; Bta = N[C@@H](Cc1csc2ccccc12)C(=O)O; αAllylPro = C=CC[C@@]1(C(=O)O)CCCN1; S8 = C=CCCCCCC[C@](C)(N)C(=O)O
# T1: full-length beta-Catenin (Uniprot ID P35222) (Homo sapiens (Human), UniProt P35222 1-781)
# T1 construct: also called bCat; B-Catenin
# T1 sequence: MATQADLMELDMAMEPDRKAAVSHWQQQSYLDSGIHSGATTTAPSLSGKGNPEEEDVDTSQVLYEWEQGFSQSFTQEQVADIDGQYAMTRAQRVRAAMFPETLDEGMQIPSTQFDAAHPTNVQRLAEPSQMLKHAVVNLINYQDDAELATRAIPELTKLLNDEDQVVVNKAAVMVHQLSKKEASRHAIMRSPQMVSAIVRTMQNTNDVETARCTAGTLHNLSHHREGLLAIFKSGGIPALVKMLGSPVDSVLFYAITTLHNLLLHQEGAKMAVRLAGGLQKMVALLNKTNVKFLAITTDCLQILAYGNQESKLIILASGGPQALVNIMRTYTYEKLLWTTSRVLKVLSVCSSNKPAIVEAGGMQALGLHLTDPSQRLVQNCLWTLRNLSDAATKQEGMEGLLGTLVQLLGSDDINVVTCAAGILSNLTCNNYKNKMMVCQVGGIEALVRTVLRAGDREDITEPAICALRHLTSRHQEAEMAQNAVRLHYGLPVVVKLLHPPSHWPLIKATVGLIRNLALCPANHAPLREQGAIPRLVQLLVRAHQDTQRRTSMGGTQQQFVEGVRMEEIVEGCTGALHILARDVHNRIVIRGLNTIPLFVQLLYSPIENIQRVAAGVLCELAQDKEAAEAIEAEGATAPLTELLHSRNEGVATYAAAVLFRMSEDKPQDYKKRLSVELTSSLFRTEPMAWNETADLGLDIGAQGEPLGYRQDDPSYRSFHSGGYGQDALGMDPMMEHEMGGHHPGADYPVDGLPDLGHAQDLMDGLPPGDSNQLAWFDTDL
# T2: full-length beta-Catenin (Uniprot ID P35222) (Homo sapiens (Human), UniProt P35222 2-781)
# T2 construct: Tags of the recombinant protein are not described for the FP assay; also called bCat; B-Catenin
# T2 sequence: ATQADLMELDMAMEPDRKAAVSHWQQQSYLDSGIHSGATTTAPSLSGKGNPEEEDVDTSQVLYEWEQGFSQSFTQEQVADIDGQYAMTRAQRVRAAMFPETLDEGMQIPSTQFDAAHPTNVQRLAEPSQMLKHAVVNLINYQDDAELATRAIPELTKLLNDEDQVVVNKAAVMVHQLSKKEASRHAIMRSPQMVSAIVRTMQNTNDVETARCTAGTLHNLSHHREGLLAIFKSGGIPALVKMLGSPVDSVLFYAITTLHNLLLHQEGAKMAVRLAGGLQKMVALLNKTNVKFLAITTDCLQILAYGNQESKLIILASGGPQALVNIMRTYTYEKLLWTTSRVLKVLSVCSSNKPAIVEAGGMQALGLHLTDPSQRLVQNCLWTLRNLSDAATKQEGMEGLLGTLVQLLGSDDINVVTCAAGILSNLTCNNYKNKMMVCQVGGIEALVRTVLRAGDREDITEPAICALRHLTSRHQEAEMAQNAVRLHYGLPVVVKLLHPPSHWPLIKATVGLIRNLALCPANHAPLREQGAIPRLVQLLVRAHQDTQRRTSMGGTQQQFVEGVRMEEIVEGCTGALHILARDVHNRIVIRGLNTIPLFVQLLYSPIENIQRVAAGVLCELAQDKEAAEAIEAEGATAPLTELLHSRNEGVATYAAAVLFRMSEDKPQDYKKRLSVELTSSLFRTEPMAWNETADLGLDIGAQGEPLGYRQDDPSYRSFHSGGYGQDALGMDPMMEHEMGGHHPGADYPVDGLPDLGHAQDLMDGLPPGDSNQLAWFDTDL
# Biological target: T1, full-length beta-Catenin (Uniprot ID …)
# Test: fluorescence polarization competition; full-length beta-catenin with 5FAM-labeled TCF4 residues 10-53 probe as competitor
# Procedure: (§1) The plate was incubated protected from light for 60 minutes at 20° C. prior to read. Reads were performed on a CLARIOstar plate reader (BMG Labtech) in duplicate, and data were fitted to a 1:1 binding model with hill slope using an in-house script. All provided concentrations are final concentrations.
row,IC50 [nM],Binder
1,180,"Ac-[αAllylPro]D[TOMe][B5(21)]DEAAFQ[S8]F[Bta]Q-NH2 (staple 1-4, 4-11, It has the same description as I-542) [I-541]"
2,5000,"Ac-[αAllylPro]DA[B5(21)][(NHMe)AsnR]DAAFV[S8]F[Bta]Q-NH2 (staple 1-4, 4-11) [I-540]"

# Biological target: T2, full-length beta-Catenin (Uniprot ID …)
# Test: fluorescence polarization competition; full-length beta-catenin, competitor 5FAM-TCF4 10-53
# Procedure: as §1
row,Binder,IC50 [nM]
1,"XDIXDEAAFQXFXP (not fully specified; As printed: Ac-PL3-Asp-Ile-B5-Asp-Glu-Ala-Ala-Phe-Gln-S8-Phe-BztA-Pro-NH2; N-terminal Ac, C-terminal NH2; PL3 (1), B5 (4), S8 (11), BztA (13); staples PL3-B5 and B5-S8 by olefin metathesis, Stapled peptide composition; also called Ac-PL3-Asp-Ile-B5-Asp-Glu-Ala-Ala-Phe-Gln-S8-Phe-BztA-Pro-NH2) [I-637]",5000
2,"Ac-[αAllylPro]DI[B5(9)]DEAAFQ[S8]F[Bta]V-NH2 (staple 1-4, 4-11, Stapled peptide composition; also called Ac-PL3-Asp-Ile-B5-Asp-Glu-Ala-Ala-Phe-Gln-S8-Phe-BztA-Val-NH2) [I-646]",461
3,"Ac-[αAllylPro]DI[B5(16)]DEAAFQ[S8]F[Bta]L-NH2 (staple 1-4, 4-11, Stapled peptide composition; also called Ac-PL3-Asp-Ile-B5-Asp-Glu-Ala-Ala-Phe-Gln-S8-Phe-BztA-Leu-NH2) [I-634]",425
4,"Ac-[αAllylPro]DI[B5(9)]DEAAFQ[S8]F[Bta]W-NH2 (staple 1-4, 4-11, Stapled peptide composition; also called Ac-PL3-Asp-Ile-B5-Asp-Glu-Ala-Ala-Phe-Gln-S8-Phe-BztA-Trp-NH2) [I-643]",958
5,"Ac-[αAllylPro]DI[B5(9)]DEAAFQ[S8]F[Bta]W-NH2 (staple 1-4, 4-11, Stapled peptide composition; also called Ac-PL3-Asp-Ile-B5-Asp-Glu-Ala-Ala-Phe-Gln-S8-Phe-BztA-Trp-NH2) [I-644]",808
6,"Ac-[αAllylPro]DI[B5(9)]DELAFQ[S8]F[Bta]Q-NH2 (staple 1-4, 4-11, Stapled peptide composition; also called Ac-PL3-Asp-Ile-B5-Asp-Glu-Leu-Ala-Phe-Gln-S8-Phe-BztA-Gln-NH2) [I-647]",445
7,"XDIXDEAAFQXFXP (not fully specified; As printed: Ac-PL3-Asp-Ile-B5-Asp-Glu-Ala-Ala-Phe-Gln-S8-Phe-BztA-Pro-NH2; N-terminal Ac, C-terminal NH2; PL3 (1), B5 (4), S8 (11), BztA (13); staples PL3-B5 and B5-S8 by olefin metathesis, Stapled peptide composition; also called Ac-PL3-Asp-Ile-B5-Asp-Glu-Ala-Ala-Phe-Gln-S8-Phe-BztA-Pro-NH2) [I-638]",3880

# Second part, the binder after the results:
row,IC50 [nM],Binder
1,171,"Ac-[αAllylPro]DI[B5(16)]DEAAFQ[S8]F[Bta]F-NH2 (staple 1-4, 4-11, Stapled peptide composition; also called Ac-PL3-Asp-Ile-B5-Asp-Glu-Ala-Ala-Phe-Gln-S8-Phe-BztA-Phe-NH2) [I-635]"
2,122,"XDIXDEAAFQXFXT (not fully specified; As printed: Ac-PL3-Asp-Ile-B5-Asp-Glu-Ala-Ala-Phe-Gln-S8-Phe-BztA-Thr-NH2; N-terminal Ac, C-terminal NH2; PL3 (1), B5 (4), S8 (11), BztA (13); staples PL3-B5 and B5-S8 by olefin metathesis, Stapled peptide composition; also called Ac-PL3-Asp-Ile-B5-Asp-Glu-Ala-Ala-Phe-Gln-S8-Phe-BztA-Thr-NH2) [I-641]"
3,88,"Ac-[αAllylPro]DI[B5(16)]DEAAFQ[S8]F[Bta]R-NH2 (staple 1-4, 4-11, Stapled peptide composition; also called Ac-PL3-Asp-Ile-B5-Asp-Glu-Ala-Ala-Phe-Gln-S8-Phe-BztA-Arg-NH2) [I-633]"
4,118,"XDIXDEAAFQXFXT (not fully specified; As printed: Ac-PL3-Asp-Ile-B5-Asp-Glu-Ala-Ala-Phe-Gln-S8-Phe-BztA-Thr-NH2; N-terminal Ac, C-terminal NH2; PL3 (1), B5 (4), S8 (11), BztA (13); staples PL3-B5 and B5-S8 by olefin metathesis, Stapled peptide composition; also called Ac-PL3-Asp-Ile-B5-Asp-Glu-Ala-Ala-Phe-Gln-S8-Phe-BztA-Thr-NH2) [I-642]"
5,87,"XDIXDEAAFQXFXS (not fully specified; As printed: Ac-PL3-Asp-Ile-B5-Asp-Glu-Ala-Ala-Phe-Gln-S8-Phe-BztA-Ser-NH2; N-terminal Ac, C-terminal NH2; PL3 (1), B5 (4), S8 (11), BztA (13); staples PL3-B5 and B5-S8 by olefin metathesis, Stapled peptide composition; also called Ac-PL3-Asp-Ile-B5-Asp-Glu-Ala-Ala-Phe-Gln-S8-Phe-BztA-Ser-NH2) [I-640]"
6,395,"Ac-[αAllylPro]DI[B5(9)]DEAAFQ[S8]F[Bta]V-NH2 (staple 1-4, 4-11, Stapled peptide composition; also called Ac-PL3-Asp-Ile-B5-Asp-Glu-Ala-Ala-Phe-Gln-S8-Phe-BztA-Val-NH2) [I-645]"
7,198,"Ac-[αAllylPro]DI[B5(16)]DEAAFQ[S8]F[Bta]Y-NH2 (staple 1-4, 4-11, Stapled peptide composition; also called Ac-PL3-Asp-Ile-B5-Asp-Glu-Ala-Ala-Phe-Gln-S8-Phe-BztA-Tyr-NH2) [I-636]"
8,109,"XDIXDEAAFQXFXS (not fully specified; As printed: Ac-PL3-Asp-Ile-B5-Asp-Glu-Ala-Ala-Phe-Gln-S8-Phe-BztA-Ser-NH2; N-terminal Ac, C-terminal NH2; PL3 (1), B5 (4), S8 (11), BztA (13); staples PL3-B5 and B5-S8 by olefin metathesis, Stapled peptide composition; also called Ac-PL3-Asp-Ile-B5-Asp-Glu-Ala-Ala-Phe-Gln-S8-Phe-BztA-Ser-NH2) [I-639]"
9,209,"Ac-[αAllylPro]DI[B5(9)]DEFAFQ[S8]F[Bta]Q-NH2 (staple 1-4, 4-11, Stapled peptide composition; also called Ac-PL3-Asp-Ile-B5-Asp-Glu-Phe-Ala-Phe-Gln-S8-Phe-BztA-Gln-NH2) [I-649]"
